Test results reported in patent EP1272205B1 (The Johns Hopkins University, dated 2013).

How the values were obtained:
[1] = target: SAF-2 on cells (human eosinophils, basophils, cord blood-derived mast cells; HEK293 cells transfected with full length SAF-2) (human) (UniProt Q9NYZ4); experiment: indirect immunofluorescence flow cytometry on human basophils
[2] = target: T1, SAF-2 polypeptide (extracellular domain of sialoadhesin factor-2, released from SAF-2/Fc with Factor Xa) (human, UniProt Q9NYZ4 17-363); experiment: BIAcore SPR; mAb captured on rabbit anti-mouse IgG Fc surface, SAF-2 injected; calculated from rates
T1 construct: extracellular domain; The BIAcore paragraph says only 'SAF-2 (diluted in HBS buffer)'; also called Siglec-8
T1 sequence (Q9NYZ4 17-363): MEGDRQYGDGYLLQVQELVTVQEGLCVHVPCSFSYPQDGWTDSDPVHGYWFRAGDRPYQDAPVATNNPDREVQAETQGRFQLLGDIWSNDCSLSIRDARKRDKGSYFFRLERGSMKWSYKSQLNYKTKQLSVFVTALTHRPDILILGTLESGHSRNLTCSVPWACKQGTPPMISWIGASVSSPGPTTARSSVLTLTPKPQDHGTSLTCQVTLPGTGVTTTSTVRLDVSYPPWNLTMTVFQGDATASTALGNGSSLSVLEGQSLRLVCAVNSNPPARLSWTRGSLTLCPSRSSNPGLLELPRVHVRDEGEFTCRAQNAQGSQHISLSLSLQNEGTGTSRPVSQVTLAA

[3] = target: T1, SAF-2 polypeptide (extracellular domain …); experiment: BIAcore SPR; mAb captured on rabbit anti-mouse IgG Fc surface, SAF-2 injected

Chain of SAF-2 on cells (human eosinophils, basophils, cord blood-derived mast cells; HEK293 cells transfected with full length SAF-2) (human) (Q9NYZ4 17-499): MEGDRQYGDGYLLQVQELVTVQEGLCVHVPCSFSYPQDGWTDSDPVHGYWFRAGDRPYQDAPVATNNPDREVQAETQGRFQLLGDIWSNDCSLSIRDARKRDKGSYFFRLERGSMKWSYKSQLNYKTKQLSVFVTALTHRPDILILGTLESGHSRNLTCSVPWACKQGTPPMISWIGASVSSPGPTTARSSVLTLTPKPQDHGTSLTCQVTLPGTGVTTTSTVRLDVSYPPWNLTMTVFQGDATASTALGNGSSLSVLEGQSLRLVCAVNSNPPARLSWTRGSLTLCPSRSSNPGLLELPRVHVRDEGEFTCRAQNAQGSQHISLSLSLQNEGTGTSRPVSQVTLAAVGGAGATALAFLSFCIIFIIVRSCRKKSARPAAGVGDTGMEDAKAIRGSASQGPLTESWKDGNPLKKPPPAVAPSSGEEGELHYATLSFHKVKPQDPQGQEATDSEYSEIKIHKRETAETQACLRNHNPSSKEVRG

percent positive (percent positive) [1]: 21.1 | Kd [2]: 200 pM | koff [3]: 4.3e-05 s⁻¹ | kon [3]: 220000 M⁻¹ s⁻¹
B1: monoclonal antibody 2C4 (antibody, V domains shown)
VH: QVQLKESGPGLVAPSQSLSITCTVSGFSLIYGAHWVRQPPGKGLEWLGVIWAGGSTNYNSALMSRLSISKDNSKSQVFLKINSLQTDDTALYYCARDGSSPYYYSMEYWGQGTSVTVSS
VL: EIILTQSPAIMSASPGEKVSITCSATSSVSYMHWFQQKPGTSPKLWIYSTSNLASGVPVRFSGSGSGTSYSLTISRMEAEDAATYYCQQRSSYPFTFGSGTKLEIKR
notes: also called mAb 2C4
